The values below come from the Human Domainome abundance scans (Beltran et al. 2025).

± gives the uncertainty stated by the source.

B1: Glucocorticoid receptor, residues 419 to 494; numbered along this chain, P04150 (parent)
chain: KLCLVCSDEASGCHYGVLTCGSCKVFFKRAVEGQHNYLCAGRNDCIIDKIRRKNCPACRYRKCLQAGMNLEARKTK

The variants in the series derive from B1. Put plainly: abundance fitness (aPCA) (normalised: wild type 0, dead -1); higher = more abundant; growth selection in yeast, the domain comes from the species named. To be noted: Homo sapiens.
Regarding KLCLVCSDEASGCHYGVLTCGSCKVFFKRAVEGQHNLLCAGRNDCIIDKIRRKNCPACRYRKCLQAGMNLEARKTK [Y37L], the abundance fitness is -0.003 ± 0.04. As for KLCLVCSDEASGCHYGVLTCGSCKVFFSRAVEGQHNYLCAGRNDCIIDKIRRKNCPACRYRKCLQAGMNLEARKTK [K28S], the figure is -0.068 ± 0.044; as for KLCLVCSDEASGCHYGVLTCGSCKVFFKRAVEGQHNYLCAGRNDCIIDKIRRPNCPACRYRKCLQAGMNLEARKTK [K53P], -0.027 ± 0.046; as for KLCLVCSDEASGCHYGVLTCGSCKVFFKRAVEGQHNYLCAGRNDCIIDKIRRTNCPACRYRKCLQAGMNLEARKTK [K53T], -0.024 ± 0.046. Consider KLCLVCSDEASGCHYGVLTCGSCKVFFKRAVEGQHNYLCAGRNDCIIDKIRRKNCPACRYRKCLQAGMNLEARKTW [K76W], for which the abundance fitness is -0.137 ± 0.083.

On to KLCLVCSDEASECHYGVLTCGSCKVFFKRAVEGQHNYLCAGRNDCIIDKIRRKNCPACRYRKCLQAGMNLEARKTK [G12E], for which the abundance fitness is -0.057 ± 0.044.

Consider KLCLVCSDEASKCHYGVLTCGSCKVFFKRAVEGQHNYLCAGRNDCIIDKIRRKNCPACRYRKCLQAGMNLEARKTK [G12K], for which the abundance fitness was -0.08 ± 0.047.

For the variant KLVLVCSDEASGCHYGVLTCGSCKVFFKRAVEGQHNYLCAGRNDCIIDKIRRKNCPACRYRKCLQAGMNLEARKTK [C3V], the abundance fitness is -1.13 ± 0.17. Turning to KLMLVCSDEASGCHYGVLTCGSCKVFFKRAVEGQHNYLCAGRNDCIIDKIRRKNCPACRYRKCLQAGMNLEARKTK [C3M], the abundance fitness was -0.763 ± 0.15. As to KLCLVCSDEASGCHYGVLTCGSCIVFFKRAVEGQHNYLCAGRNDCIIDKIRRKNCPACRYRKCLQAGMNLEARKTK [K24I], the abundance fitness is -0.245 ± 0.072. As for KLCLVCSDEASGCHYGVLTCGSCVVFFKRAVEGQHNYLCAGRNDCIIDKIRRKNCPACRYRKCLQAGMNLEARKTK [K24V], the figure is 0.015 ± 0.059.

As for KLCLVCSDEASGCHYGVLTCGSCSVFFKRAVEGQHNYLCAGRNDCIIDKIRRKNCPACRYRKCLQAGMNLEARKTK [K24S], the abundance fitness was 0.062 ± 0.055. With KLCLVCSDEASGCHYGVLTCGSCMVFFKRAVEGQHNYLCAGRNDCIIDKIRRKNCPACRYRKCLQAGMNLEARKTK [K24M] the figure was -0.087 ± 0.077.

KLCLVTSDEASGCHYGVLTCGSCKVFFKRAVEGQHNYLCAGRNDCIIDKIRRKNCPACRYRKCLQAGMNLEARKTK [C6T]: the abundance fitness was -1.14 ± 0.24.

For the variant KLCLVCSDEASGCHYGVLTCGSCKVFFKRAVEGQHNYLCAGRYDCIIDKIRRKNCPACRYRKCLQAGMNLEARKTK [N43Y], the abundance fitness is -0.008 ± 0.066. Regarding KLCLVCSDEASGCHYGVLTCGSCKVFFKRAVEGQHNYLCAGRTDCIIDKIRRKNCPACRYRKCLQAGMNLEARKTK [N43T], the abundance fitness is -0.134 ± 0.046.

Turning to KLCLVCSDEASGCHYGVLTCGSCKVFFKRAVGGQHNYLCAGRNDCIIDKIRRKNCPACRYRKCLQAGMNLEARKTK [E32G], the abundance fitness is -0.04 ± 0.036. For the variant KLCLVCSDEASGCHYGVLTCGSCKVFFKRAVEGQHNYLCAGRNDCIIDKIRKKNCPACRYRKCLQAGMNLEARKTK [R52K], the abundance fitness is -0.03 ± 0.047. For KLCLVCSDEASGCHYGVLTCGSCKVFFKRAVEGQHNYLCAGRNDCIIDKIRWKNCPACRYRKCLQAGMNLEARKTK [R52W], the abundance fitness was -0.112 ± 0.04. For KLCLVCSDEASGCHYGVLTCGSCKVFFKRAVEGQHNYLCAGRNDCIIDKIRRKNCPACRYRKSLQAGMNLEARKTK [C63S], the abundance fitness was -0.42 ± 0.05. KLCLVCSDEASGCHYGVLTCGSCKVFFKRIVEGQHNYLCAGRNDCIIDKIRRKNCPACRYRKCLQAGMNLEARKTK [A30I]: the abundance fitness was -0.071 ± 0.083. Regarding KLCLVCSDEASGCHYGVLTCGSCKVFFKRAVEGQHNYLCAGRNDCIIDKIRRKNGPACRYRKCLQAGMNLEARKTK [C55G], the abundance fitness is -0.814 ± 0.061. As for KLCLVCSDEASGCHYGVLTCGSCKVFFKRAVEGQHNYLCAGRNDCIIDKIRRKNIPACRYRKCLQAGMNLEARKTK [C55I], the figure is -0.801 ± 0.32; as for KLCLVCSDEASGCHYGVLTCGSCKVFFKRAVEGQHNYLCAGRNDCIIDKIRRKNYPACRYRKCLQAGMNLEARKTK [C55Y], -0.66 ± 0.16. As to KLCLVCSDEASGCHYGVLTCGSCKVFFKRAVEGQHFYLCAGRNDCIIDKIRRKNCPACRYRKCLQAGMNLEARKTK [N36F], the abundance fitness is -0.006 ± 0.084. As for KLCLVCSDEASGCHYGVLTCNSCKVFFKRAVEGQHNYLCAGRNDCIIDKIRRKNCPACRYRKCLQAGMNLEARKTK [G21N], the abundance fitness is -0.15 ± 0.09. In the case of KLCLVCSDEASGCHYGVLTCGSCKEFFKRAVEGQHNYLCAGRNDCIIDKIRRKNCPACRYRKCLQAGMNLEARKTK [V25E], the abundance fitness was found to be 0.051 ± 0.076.

On to KLCLVCSDEASGCHYGVLTCGSCKVFFKRAVEGQHNYLCAGRNDEIIDKIRRKNCPACRYRKCLQAGMNLEARKTK [C45E], for which the abundance fitness is -0.762 ± 0.12.

Turning to KLCLVCSDEASGCHYGVLTCGSCKVFFKRAVEGQHNYLCAGRNDVIIDKIRRKNCPACRYRKCLQAGMNLEARKTK [C45V], the abundance fitness is -0.698 ± 0.082. As to KMCLVCSDEASGCHYGVLTCGSCKVFFKRAVEGQHNYLCAGRNDCIIDKIRRKNCPACRYRKCLQAGMNLEARKTK [L2M], the abundance fitness is -0.024 ± 0.057.

As to KACLVCSDEASGCHYGVLTCGSCKVFFKRAVEGQHNYLCAGRNDCIIDKIRRKNCPACRYRKCLQAGMNLEARKTK [L2A], the abundance fitness was 0.056 ± 0.035.

Turning to KLCLVCSDEASGCHYGVLTCGSCKVFFKRAVEGTHNYLCAGRNDCIIDKIRRKNCPACRYRKCLQAGMNLEARKTK [Q34T], the abundance fitness was -0.064 ± 0.045. Take KLCLVCSDEASGCHYGVLTCGSCKVFFKRAVEGHHNYLCAGRNDCIIDKIRRKNCPACRYRKCLQAGMNLEARKTK [Q34H]: the abundance fitness was -0.14 ± 0.098. As for KLCLVCSDEASGCHYGVLTCGSCKVFKKRAVEGQHNYLCAGRNDCIIDKIRRKNCPACRYRKCLQAGMNLEARKTK [F27K], the abundance fitness is -0.951 ± 0.2.

KLCLVCSDEASGCHYGVLTCGSCKVFNKRAVEGQHNYLCAGRNDCIIDKIRRKNCPACRYRKCLQAGMNLEARKTK [F27N]: the abundance fitness is -0.722 ± 0.25.

In the case of SLCLVCSDEASGCHYGVLTCGSCKVFFKRAVEGQHNYLCAGRNDCIIDKIRRKNCPACRYRKCLQAGMNLEARKTK [K1S], the abundance fitness is -0.062 ± 0.063.
